Experiment [1] addresses T1, amphyphisin SH3 (AMPH_HUMAN), P49418.
T1 chain: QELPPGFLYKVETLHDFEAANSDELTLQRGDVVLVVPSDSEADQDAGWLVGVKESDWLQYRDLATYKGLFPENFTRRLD
Briefly: SPOT array.

The target of experiment [2] is endophilin SH3 (SH3G2_HUMAN), Q99962. Briefly: SPOT array.

As to SQGPPPRPGKPEGQ [Q04118 68-81], the normalised SPOT signal, Boehringer light units (BLU); mean over the file's lines of this peptide in experiment [1] was 120; in experiment [2], 103.

Regarding SPSVPKRPKLPAPT [P18887 266-279], the normalised SPOT signal, Boehringer light units (BLU); mean over the file's lines of this peptide in experiment [1] came to 1780; in experiment [2] it was 22000.

In the case of SSEEPRRPLRSDMV [Q9H6D1 6-19], the normalised SPOT signal, Boehringer light units (BLU); mean over the file's lines of this peptide in experiment [1] was 1890; in experiment [2], 110.

On to SQSFIIRPQKEGER [Q05397 355-368], for which the normalised SPOT signal, Boehringer light units (BLU); mean over the file's lines of this peptide in experiment [1] amounted to 118; in experiment [2], 87.4.

With SPTVPIKPPSIPNG [Q13557 471-485], the figures for the normalised SPOT signal, Boehringer light units (BLU); mean over the file's lines of this peptide in experiment [1] and in experiment [2] were 66.5 and 112, respectively.

Consider SQQPPSRPPHLPVE [Q9UPQ2 54-68], for which the normalised SPOT signal, Boehringer light units (BLU); mean over the file's lines of this peptide in experiment [1] came out at 45.1; in experiment [2] it was 775.

Regarding SQPGPAKPPAQPSG [Q9Y6V0 287-301], the normalised SPOT signal, Boehringer light units (BLU); mean over the file's lines of this peptide in experiment [1] came out at 78.5; in experiment [2] it was 130.

In the case of SSKPIKRPVLDPFI [Q96AA8 422-435], the normalised SPOT signal, Boehringer light units (BLU); mean over the file's lines of this peptide in experiment [1] was 35.4; in experiment [2] it was 189.

On to SQQNFHRPVKVRKK [Q9UI45 537-550], for which the normalised SPOT signal, Boehringer light units (BLU); mean over the file's lines of this peptide in experiment [1] turned out to be 52.5; in experiment [2], 99.7.

Turning to SQNEPKRPMSGEYG [Q9Y6X4 283-296], the normalised SPOT signal, Boehringer light units (BLU); mean over the file's lines of this peptide in experiment [1] was 17; in experiment [2], 21.5.

For SSPEPPRPAKRPRR [Q9P2A7 954-967], the normalised SPOT signal, Boehringer light units (BLU); mean over the file's lines of this peptide turned out to be 614 in experiment [1] and 181 in experiment [2].

For SPVLPARPPPPPLP [O75412 1038-1052], the normalised SPOT signal, Boehringer light units (BLU); mean over the file's lines of this peptide in experiment [1] was 713; in experiment [2], 1520.

For the molecule SQAFIYRPIRQRVY [Q9NU43 22-35], the normalised SPOT signal, Boehringer light units (BLU); mean over the file's lines of this peptide in experiment [1] stood at 621; in experiment [2] it was 102.

For SRKNLKRPIAHLPS [Q13112 270-283], the normalised SPOT signal, Boehringer light units (BLU); mean over the file's lines of this peptide in experiment [1] is 60.1; in experiment [2], 33.5.

On to SSGPPPKPPVSSGS [Q9NR59 803-817], for which the normalised SPOT signal, Boehringer light units (BLU); mean over the file's lines of this peptide in experiment [1] worked out at 81.4; in experiment [2], 122.

With SRGPPRRPPRSVKL [Q96DR3 69-83], the normalised SPOT signal, Boehringer light units (BLU); mean over the file's lines of this peptide in experiment [1] stood at 20600; in experiment [2], 10200.

As to SQALPPRPPPPAPV [Q13330 692-706], the results for the normalised SPOT signal, Boehringer light units (BLU); mean over the file's lines of this peptide in experiment [1] and in experiment [2] were 44.7 and 2540, respectively.

Take SREGPARPYRLKPG [Q9ULL4 1157-1170]: the normalised SPOT signal, Boehringer light units (BLU); mean over the file's lines of this peptide in experiment [1] worked out at 1270; in experiment [2], 1200.

As to SQRRPRRPPTVFRL [Q96Q00 325-339], the normalised SPOT signal, Boehringer light units (BLU); mean over the file's lines of this peptide in experiment [1] came to 1550; in experiment [2], 10900.

On to SSNTIRRPRNYSVG [O60825 472-485], for which the normalised SPOT signal, Boehringer light units (BLU); mean over the file's lines of this peptide in experiment [1] is 31.8; in experiment [2] it was 7.4.

In the case of SRNIFKRPLGSRIE [P12111 1320-1333], the normalised SPOT signal, Boehringer light units (BLU); mean over the file's lines of this peptide in experiment [1] amounted to 30.4; in experiment [2] it was 0.9.

On to SSDWLRRPLGEDNQ [Q9Y6S1 96-109], for which the normalised SPOT signal, Boehringer light units (BLU); mean over the file's lines of this peptide in experiment [1] amounted to 43.6; in experiment [2] it was 37.4.

For SQIPPQRPQRDQRV [Q13283 290-303], the normalised SPOT signal, Boehringer light units (BLU); mean over the file's lines of this peptide in experiment [1] was 14100; in experiment [2] it was 15300.

For SSGRPGRPPGPAAA [Q99491 157-171], the results for the normalised SPOT signal, Boehringer light units (BLU); mean over the file's lines of this peptide in experiment [1] and in experiment [2] were 72.6 and 1800, respectively.

For the molecule SQEILRRPIVASEL [Q9UHW3 40-53], the normalised SPOT signal, Boehringer light units (BLU); mean over the file's lines of this peptide was found to be 21.1 in experiment [1] and 53.9 in experiment [2].

SRLHFGRPRRADYL [Q13629 53-66]: the normalised SPOT signal, Boehringer light units (BLU); mean over the file's lines of this peptide in experiment [1] is 842; in experiment [2], 202.

Consider SPVHLRRPQSPGAS [Q9Y556 324-337], for which the results for the normalised SPOT signal, Boehringer light units (BLU); mean over the file's lines of this peptide in experiment [1] and in experiment [2] were 31.7 and 56.3, respectively.

On to SRSPPKKPPKRTSS [O60585 365-379], for which the results for the normalised SPOT signal, Boehringer light units (BLU); mean over the file's lines of this peptide in experiment [1] and in experiment [2] were 236 and 2210, respectively.

SQGPLQRPSRLVFT [Q9UK00 141-154]: the normalised SPOT signal, Boehringer light units (BLU); mean over the file's lines of this peptide in experiment [1] was determined as 1370; in experiment [2], 69.8.

Consider SSHSPYRPPTNYRN [Q8TEB6 103-117], for which the normalised SPOT signal, Boehringer light units (BLU); mean over the file's lines of this peptide was found to be 51.9 in experiment [1] and 681 in experiment [2].

SPVLPARPPPPPLS [O00508 1114-1128]: the results for the normalised SPOT signal, Boehringer light units (BLU); mean over the file's lines of this peptide in experiment [1] and in experiment [2] were 399 and 4080, respectively.

Consider SRLTLLRPEKDGEA [Q9H7S7 483-496], for which the figures for the normalised SPOT signal, Boehringer light units (BLU); mean over the file's lines of this peptide in experiment [1] and in experiment [2] were 214 and 185, respectively.

For SSSGPKRPQDKVAV [P21399 369-382], the results for the normalised SPOT signal, Boehringer light units (BLU); mean over the file's lines of this peptide in experiment [1] and in experiment [2] were 50.5 and 50.4, respectively.

In the case of SQGPPPRPGKPEGS [Q04118 215-228], the normalised SPOT signal, Boehringer light units (BLU); mean over the file's lines of this peptide is 103 in experiment [1] and 132 in experiment [2].

SQGPPPRPGKPEGP [Q9UCT9 1-14]: the normalised SPOT signal, Boehringer light units (BLU); mean over the file's lines of this peptide is 106 in experiment [1] and 3230 in experiment [2].

As to SPRLPRRPTVESHH [O94883 131-144], the figures for the normalised SPOT signal, Boehringer light units (BLU); mean over the file's lines of this peptide in experiment [1] and in experiment [2] were 1290 and 4830, respectively.

Turning to SSTFLQRPIRKPSK [Q9UI27 293-306], the values for the normalised SPOT signal, Boehringer light units (BLU); mean over the file's lines of this peptide in experiment [1] and in experiment [2] were 4730 and 341, respectively.

With SSGILKRPQTLAIP [Q9Y2W3 232-245], the normalised SPOT signal, Boehringer light units (BLU); mean over the file's lines of this peptide worked out at 71.5 in experiment [1] and 10.4 in experiment [2].

For the origin of these results see paper PMC314469, “Protein Interaction Networks by Proteome Peptide Scanning” (PLoS Biology, 2004).
